According to patent US12441790B2, “Binding proteins to the human thrombin receptor, PAR4” (MONASH UNIVERSITY, priority 2017, dated 2025):
Entries after “also recorded” stand apart in the source; their conditions may differ.

How the values were obtained:
[1] = target: T1, PAR4 (Homo sapiens, UniProt Q96RI0); test: Functional bioassays for PAR4 inhibitory function; assay type: cell-based
T1 construct: host or cells: HEK293 cells transfected with FLAG-PAR4 and/or isolated human platelets
T1 sequence (Q96RI0 18-385): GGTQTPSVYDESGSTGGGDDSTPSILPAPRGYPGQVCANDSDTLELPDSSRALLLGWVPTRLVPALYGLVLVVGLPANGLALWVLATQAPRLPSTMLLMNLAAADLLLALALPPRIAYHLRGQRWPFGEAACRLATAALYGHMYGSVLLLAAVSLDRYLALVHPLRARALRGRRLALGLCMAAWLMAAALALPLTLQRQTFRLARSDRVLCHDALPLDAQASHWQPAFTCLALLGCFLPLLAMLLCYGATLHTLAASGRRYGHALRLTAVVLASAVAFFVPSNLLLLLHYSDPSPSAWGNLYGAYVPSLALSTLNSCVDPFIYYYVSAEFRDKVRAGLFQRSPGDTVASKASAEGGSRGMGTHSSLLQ

[2] = target: T2, hPAR4 peptide (Homo sapiens, UniProt Q96RI0); test: mAb capture SPR (Biacore, anti-mouse Fc capture); assay type: binding
T2 construct: host or cells: synthetic peptide
Experimental: Biacore analysis was performed on a Biacore T200 using two different methods either an anti-mouse Fc capture approach or using a similar method as described above using the ProteoOn system.
A series S CM5 sensor chip was activated with standard EDC/NHS amine coupling chemistry using the manufacturers recommended protocol with Goat anti-mouse IgG Fc. Anti-hPAR4 mAbs were captured at 1-2 ug/ml for 2 minutes at 10 ul/minute on flow cell 2 (FC2) and flow cell 1 (FC1) was used as a reference channel. […] Blank injections of buffer alone were also performed. All injections were performed in duplicate and in a random order. After each capture/injection/dissociation cycle the chip was regenerated with a 30 second injection of 0.1M Glycine pH2.0.
For the mAb capture method low levels of ligand mAb and analyte hPAR4 were used in an attempt to produce a 1:1 binding interaction, this method has been used successfully to measure kinetics and affinity KD's (Kamat V and Rafique A (2017) Analytical Biochemistry 530:75-86), despite using a whole IgG.
The kinetics of the binding interaction between the mAbs and hPAR4 was measured using Surface Plasmon Resonance (SPR; Biacore) by two different methods: 1. Anti-mouse Fc mAb capture method and 2. Streptavidin (SA) chip to capture biotinylated peptide. The ka(on) rate and kd(off) rates and KD were measured and fitted to a Langmuir model using the Biacore evaluation software.

B1: 5A.RC3: anti-PAR4 monoclonal antibody, IgG2a/K, VH SEQ ID NO:11 and VL SEQ ID NO:12 (antibody, V domains shown)
VH: QVQLVESGGGVVQPGRSLRLSCAASGFTLSNYGMHWVRQAPGKGLEWVSVIWYDGSNKHYADSVKGRFTISRDNSKNTLYLQMNSLRAEDTAVYYCARESIVEVLPPFDYWGQGTLVTVSS
VL: KIVLTQSPGTLSLSPGERVTLSCRASQRVRNNYLAWFQQKPGQAPRLFIYGASSRATGIPDRFSGSGSGTDFIFTISRLEPEDFAVYYCQQYGNSYTFGQGTKLEIK
modifications: VH of 5A.RC3; VL of 5A.RC3
In the case of B1, the “PAR4 inhibitory (antagonist) function” value [1] is reported as “demonstrated PAR4 inhibitory function; also recorded: antagonist”, the ka [2] is reported as 330000 M⁻¹ s⁻¹ and the kd [2] is reported as 0.00487 s⁻¹.
